This is an account of results in patent publication US20220380446A1 (ABL BIO, published 2022).

Like-named read-outs stand apart in the source and are kept apart here.

For experiment [1], the target named is T1, human α-synuclein pre-formed fibrils (Human Alpha Synuclein Pre-formed Fibrils Type II, StressMarq SPR-317) (human, UniProt P37840 1-140). The experiment can be described thus: SPR (Biacore), antibody captured on anti-hFab CM3 chip, α-syn PFF as analyte (sample PFF-1), single-cycle kinetics, 1:1 Binding fit, 25 °C; Run1. The procedure:
The equipment used was Biacore®. Anti-hFab (Sigma, I5260-1ML) diluted in acetate buffer (pH 5.0) was immobilized on the surface of an CM3 chip (GE Healthcare) by amine coupling. […] All procedures in association and dissociation phases were done in single-cycle kinetics. A 1:1 binding model was used for fitting, and the Biacore® T200 Evaluation software was used for the evaluation.
(SPR reads the build-up and loss of mass on a sensor chip optically.)

Experiment [2] addresses T1, human α-synuclein pre-formed fibrils …. Kind of experiment: sandwich ELISA, antibody coated, α-syn PFF added, 7B7-biotin detection. The procedure:
Specifically, the antibodies were diluted with PBS by six-fold serial dilution from 400 nM to 0.009 nM. The diluted antibodies were added to a 96-well plate at 100 μL/well for coating. The plate was sealed and incubated at 4° C. for 16 hours. After washing with phosphate-buffered saline with Tween® (PBS-T; 0.05% Tween® 20) five times, the plate was blocked with 5% BSA in PBS 200 μL/well at 37° C. for 2 hours. After washing with PBS-T five times, α-syn PFF (2 μg/mL, 100 μL/well in 2% BSA in PBS) was added to the plate and incubated at 37° C. for 2 hours. After washing with PBS-T five times, 7B7-biotin antibody (anti-α-syn antibody; 1 μg/mL/100 μL/well, in 2% BSA in PBS) was added and incubated at 37° C. for 2 hours. After washing with PBS-T five times, the plate was incubated with horseradish peroxidase (HRP)-bound streptavidin in PBS with 2% BSA (1:5000, 1 mg/mL stock, 20 ng/well, 100 μL/well) at 37° C. for 1 hour. After washing with PBS-T five times, 3,3′,5,5′-tetramethylbenzidine (TMB) (100 μL/well) was added and incubated at room temperature for 5 minutes. The reaction was stopped by the addition of 0.5 N H₂SO₄ (50 μL/well). Optical absorbance at 450 nm was measured by using a plate reader, with absorbance at 650 nm subtracted from the reading.
In general terms: An ELISA detects its analyte on a solid surface through an enzyme-linked reagent.

For experiment [3] the target is unchanged. Kind of experiment: SPR (Biacore), file name 'Main-ProA', α-syn PFF as analyte (sample PFF-1), single-cycle kinetics, 1:1 Binding fit, 25 °C; Run01.
The target in experiment [4] is T2, human α-synuclein oligomers (Dopamine HCL Stabilized Human Recombinant Alpha Synuclein Oligomers, StressMarq … (human, UniProt P37840 1-140)). The experiment can be described thus: sandwich ELISA, antibody coated, oligomeric α-syn added, 7B7-biotin detection. The procedure: (§1) In this sandwich ELISA, test antibodies were diluted with PBS by five-fold serial dilution from 80 nM to 0.005 nM. The serially diluted antibodies were added to a 96-well plate at 100 μL/well for coating. The plate was sealed and incubated at 4° C. for 16 hours. After washing with PBS-T five times, the plate was blocked with 5% BSA in PBS 200 μL/well at 37° C. for 2 hours. After washing with PBS-T five times, oligomeric α-syn (2 μg/mL, 100 μL/well in 2% BSA in PBS) was added and incubated at 37° C. for 2 hours. After washing with PBS-T five times, 7B7-biotin antibody (1 μg/mL, 100 μL/well, in 2% BSA in PBS) were added and incubated at 37° C. for 2 hours. After washing with PBS-T five times, the plate was incubated with Streptavidin-HRP in 2% BSA in PBS (1:5000, 1 mg/mL stock, 20 ng/well, 100 μL/well) at 37° C. for 1 hour. After washing with PBS-T five times, TMB (100 μL/well) was added and incubated at RT for 5 minutes. The reaction was stopped by the addition of 0.5 N H₂SO₄ (50 μL/well).

Experiment [5] addresses monomeric human α-synuclein (Active Human Recombinant Alpha Synuclein Protein Monomer type II, StressMarq … (human, UniProt P37840 1-140)). The experiment can be described thus: SPR (Biacore T200), antibody captured on Protein A chip, α-syn monomer as analyte (Monomer-1), 25 °C; Run01; number of the software's 1:1 fit printed under a sensorgram without binding response (the filing's Table 18: No-binding). The procedure: The equipment used was Biacore® T200. The anti-α-syn monospecific antibody or the anti-α-syn/IGF1R bispecific antibody was diluted with 1×HBS-EPT. […] Each diluted monomer sample was injected at 60 μL/min onto the Protein A chip surface for 60 seconds, followed by washing with 1×HBS-EP buffer. The dissociation rate was evaluated for 180 seconds. All procedures in association/dissociation phases were done in single cycle kinetics. The chip surface was regenerated by injecting 10 mM glycine-HCl pH 1.5 (GE Healthcare) onto the chip surface for 60 seconds at 30 μL/min, removing residual α-syn monomer/antibody complex. A 1:1 binding model was used for fitting, and the Biacore® T200 Evaluation software was used for evaluation.

The target of experiment [6] is T2, human α-synuclein oligomers (Dopamine …). The experiment can be described thus: sandwich ELISA, antibody coated, oligomeric α-syn added, 7B7-biotin detection. The procedure: Human α-syn oligomers from StressMarq (Dopamine HCL Stabilized Human Recombinant Alpha Synuclein Oligomers, SPR-466) was used as the oligomeric α-syn in the assay.
as §1
The source holds these as a separate data set.

Experiment [7] deals with T1, human α-synuclein pre-formed fibrils …. The experiment can be described thus: SPR (Biacore), file name 'Main-ProA', α-syn PFF as analyte (sample PFF-4), single-cycle kinetics, 1:1 Binding fit, 25 °C; Run02.

B1: hu1E4(V1_VL1) x Grabody B (bispecific antibody, human IgG1, kappa)
heavy 1: not shown
heavy 2: not shown
light: DIVMTQTPLSLSVTPGQPASISCRSSQSLVHSNGNTYLHWYLQKPGQSPQLLIYKVSNRFSGVPDRFSGSGSGTDFTLKISRVEAEDVGVYYCSQSTHVPRTFGQGTKLEIKRTVAAPSVFIFPPSDEQLKSGTASVVCLLNNFYPREAKVQWKVDNALQSGNSQESVTEQDSKDSTYSLSSTLTLSKADYEKHKVYACEVTHQGLSSPVTKSFNRGEC
notes: Anti-α-syn/IGF1R bispecific; hole heavy chain (M428L) carries the anti-IGF1R scFv Grabody B at its C-terminus through a (G4S)3 linker; knob heavy chain (M428L) without scFv; also called hu1E4(V1 VL1) × Grabody B; 1E4(Ver.1_VL1) × Grabody B
As to B1, the koff stood at 0.00067 s⁻¹ in experiment [1], 0.000472 s⁻¹ in experiment [3], 2.23 s⁻¹ in experiment [5] and 0.000219 s⁻¹ in experiment [7]. For the same molecule, the kon came to 1.91e+07 M⁻¹ s⁻¹ in experiment [1], 1.35e+07 M⁻¹ s⁻¹ in experiment [3], 3.57e+07 M⁻¹ s⁻¹ in experiment [5] and 1.44e+07 M⁻¹ s⁻¹ in experiment [7]. In addition, the figures for the EC50 in experiment [2], in experiment [4] and in experiment [6] were 0.334 nM, 3.82 nM and 3.62 nM, respectively. Further, in experiment [6], the Saturation point came to 3.18.

One may read the koff as the first-order rate constant of dissociation. In general, kon refers to a measure of how fast the partners come together. As usually defined, the EC50 is the concentration at which the effect is half-maximal.
